Assay [1] concerns the target T1, rat GDNF receptor-alpha (GDNFR-α) expressed on cells from the rat cDNA clone (rat, UniProt Q62997 25-430, GPI-anchored to the cell membrane).
T1 construct: also called rGDNFR-α
T1 sequence: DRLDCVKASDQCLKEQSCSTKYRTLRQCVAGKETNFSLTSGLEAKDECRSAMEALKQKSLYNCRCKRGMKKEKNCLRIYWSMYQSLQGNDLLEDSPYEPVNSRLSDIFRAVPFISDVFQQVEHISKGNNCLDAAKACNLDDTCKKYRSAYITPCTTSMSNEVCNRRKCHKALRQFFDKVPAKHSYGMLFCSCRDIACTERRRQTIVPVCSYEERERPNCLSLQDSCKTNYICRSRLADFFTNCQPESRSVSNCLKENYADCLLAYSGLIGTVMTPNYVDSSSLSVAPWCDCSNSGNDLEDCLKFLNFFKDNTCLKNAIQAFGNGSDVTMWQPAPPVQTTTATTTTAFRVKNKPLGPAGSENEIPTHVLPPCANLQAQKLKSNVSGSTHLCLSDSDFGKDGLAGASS
The assay is described as follows: GDNF binding to 293T cells expressing GDNFR-α; high affinity sites.

Assay [2] addresses T1, rat GDNF receptor-alpha (GDNFR-α) …. The assay is described as follows: equilibrium binding of [125I]GDNF to NGR-38 cells, Scatchard plot; high affinity site. The protocol:
(§1) Following incubation, unbound [¹²⁵I]GDNF was removed and the radioactivity associated with the cells was determined as described in Experimental Procedures. Results are depicted in FIG. 7: (A) Equilibrium binding of [¹²⁵I]GDNF to NGR-38 cells (circles) and Neuro-2a cells (squares) in the presence (open circles and open squares) or absence (filled circles and filled squares) of unlabeled GDNF; (B) Scatchard analysis of [¹²⁵I]GDNF binding to NGR-38 cells.
(§2) Neuro-2a cells (ATCC #CCL 131) were transfected with an expression plasmid, as described above, using the Calcium Phosphate Transfection System (GIBCO/BRL) according to the manufacturer's directions. Transfected cells were selected for expression of the plasmid by growth in 400 μg/mL G418 antibiotic (Sigma). G418 resistant clones were expanded and assayed for GDNFR-α expression by binding to [¹²⁵I]GDNF (Amersham, Inc., custom iodination, catalog #IMQ1057). Cells from each clone were seeded at a density of 3×10⁴ cells/cm² in duplicate wells of 24-well tissue culture plates (Becton Dickinson) pre-coated with polyornithine. […] Cells were then washed four times with ice-cold washing buffer, lysed in 1 M NaOH, and the cell-associated radiolabel quantitated in a 1470 Wizard Automated Gamma Counter (Wallac Inc.). […]

Assay [3] has the same target. The assay is described as follows: equilibrium binding of [125I]GDNF to NGR-38 cells, Scatchard plot; low affinity site. Here is the method: as §1, §2
For assay [4] the target is unchanged. The experiment in a line: GDNF binding to 293T cells expressing GDNFR-α; low affinity sites.
Assay [5] shares this target. The assay is described as follows: 50 pM [125I]GDNF on NGR-33 cells with or without excess unlabeled GDNF, gamma counting. Here is the method: (§3) Neuro-2a cells were transfected with a mammalian expression vector containing the rat GDNFR-α cDNA (such as the expression plasmid described above). Three clonal lines, NGR-16, NGR-33, and NGR-38 were tested for their ability to bind [¹²⁵I]GDNF. The unbound [¹²⁵I]GDNF was removed at the end of the incubation and the amount of radioactivity associated with the cells was determined as described in Experimental Procedures. […] Binding could be effectively competed by the addition of 500 nM unlabeled GDNF.
as §2

For assay [6], the target named is T2, human GDNFR-α Related Receptor 2 (GRR2), endogenously expressed on LA-N-5 neuroblastoma cells (human, UniProt O00451 22-444).
T2 construct: whole, on cells; GDNFR-α mRNA was not detected; The cells also express Ret; also called hGRR2
T2 sequence (looked up): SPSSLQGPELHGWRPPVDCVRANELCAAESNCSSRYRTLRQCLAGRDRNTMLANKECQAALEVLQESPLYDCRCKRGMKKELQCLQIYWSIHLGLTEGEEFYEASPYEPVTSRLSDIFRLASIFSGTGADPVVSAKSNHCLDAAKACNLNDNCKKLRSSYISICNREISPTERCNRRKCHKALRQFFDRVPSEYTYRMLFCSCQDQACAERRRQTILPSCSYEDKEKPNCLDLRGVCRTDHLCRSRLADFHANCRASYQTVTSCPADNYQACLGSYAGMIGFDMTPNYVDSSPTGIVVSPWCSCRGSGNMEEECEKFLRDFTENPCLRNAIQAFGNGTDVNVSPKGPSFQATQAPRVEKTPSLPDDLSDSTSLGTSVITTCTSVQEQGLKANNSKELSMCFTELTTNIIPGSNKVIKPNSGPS
The experiment in a line: summary of Example 10 (cell binding and cross-linking).

The target in assay [7] is T1, rat GDNF receptor-alpha (GDNFR-α) …. The assay is described as follows: 50 pM [125I]GDNF on NGR-16 cells with or without excess unlabeled GDNF, gamma counting. The protocol:
as §3, §2

The target is the same in assay [8]. The experiment in a line: Scatchard analysis of GDNF binding to 293T cells transfected with a GDNFR-α cDNA clone in pBKRSV; low affinity site.
Assay [9] shares this target. The assay is described as follows: 50 pM [125I]GDNF on NGR-38 cells with or without excess unlabeled GDNF, gamma counting. The protocol:
as §3, §2

B1: glial cell line-derived neurotrophic factor (GDNF), recombinant human (ligand, UniProt P39905 78-211, looked up)
chain: SPDKQMAVLPRRERNRQAAAANPENSRGKGRRGQRGKNRGCVLTAIHLNVTDLGLGYETKEELIFRYCSGSCDAAETTYDKILKNLSRNRRLVSDKVGQACCRPIAFDDDLSFLDDNLVYHILRKHSAKRCGCI
modifications: radio-iodinated ([125I]) in the binding and cross-linking assays; unlabeled as competitor and in the phosphorylation assays
notes: mature; also called unlabeled GDNF
Take B1: the Kd in assay [1] was around 0.002 nM; in assay [2] it was 0.0015 nM; in assay [3] it was 0.332 nM; in assay [4], around 0.2 nM; in assay [8], around 0.5 nM. Moreover, the “ratio of [125I]GDNF bound in the absence and presence of unlabeled GDNF” value turned out to be 8 in assay [5], 12.8 in assay [7] and 16 in [9]. The binding result in assay [6] is recorded as “binds”.

B2: neurturin, recombinant human (ligand, UniProt Q99748 96-197, looked up)
chain: ARLGARPCGLRELEVRVSELGLGYASDETVLFRYCAGACEAAARVYDLGLRRLRQRRRLRRERVRAQPCCRPTAYEDEVSFLDAHSRYHTVHELSARECACV
modifications: radio-iodinated ([125I]) in the binding and cross-linking assays; unlabeled as competitor and in the phosphorylation assays
notes: mature; also called NTN
Consider B2, for which, in [6], the binding result is reported as “binds”.

In general, Kd refers to the concentration at which binding is half-saturated. Higher therefore signals lower affinity.

Values taken from patent US20040235714A1 (Amgen, published 2004).
